Measurements as given in paper PMC6080939 (The Journal of Cell Biology, 2018).
Read-outs that look alike come from different tables or passages of the source.

B1: VCAM-1 (adsorbed on the surface for AFM single-cell force spectroscopy) (ligand, human, UniProt P19320 25-698, looked up)
chain: FKIETTPESRYLAQIGDSVSLTCSTTGCESPFFSWRTQIDSPLNGKVTNEGTTSTLTMNPVSFGNEHSYLCTATCESRKLEKGIQVEIYSFPKDPEIHLSGPLEAGKPITVKCSVADVYPFDRLEIDLLKGDHLMKSQEFLEDADRKSLETKSLEVTFTPVIEDIGKVLVCRAKLHIDEMDSVPTVRQAVKELQVYISPKNTVISVNPSTKLQEGGSVTMTCSSEGLPAPEIFWSKKLDNGNLQHLSGNATLTLIAMRMEDSGIYVCEGVNLIGKNRKEVELIVQEKPFTVEISPGPRIAAQIGDSVMLTCSVMGCESPSFSWRTQIDSPLSGKVRSEGTNSTLTLSPVSFENEHSYLCTVTCGHKKLEKGIQVELYSFPRDPEIEMSGGLVNGSSVTVSCKVPSVYPLDRLEIELLKGETILENIEFLEDTDMKSLENKSLEMTFIPTIEDTGKALVCQAKLHIDDMEFEPKQRQSTQTLYVNVAPRDTTVLVSPSSILEEGSSVNMTCLSQGFPAPKILWSRQLPNGELQPLSENATLTLISTKMEDSGVYLCEGINQAGRSRKEVELIIQVTPKDIKLTAFPSESVKEGDTVIISCTCGNVPETWIILKKKAETGDTVLKSIDGAYTIRKAQLKDAGVYECESKNKVGSQLRSLTLDVQGRENNKDYFSPE

What was measured:
Assay in all cases: AFM single-cell force spectroscopy
[1] = biological target: integrin α4β7 (human (endogenous in RPMI 8866–CXCR3)) (UniProt P13612)
[2] = biological target: integrin α4β7 (human (endogenous in RPMI 8866–CXCR3)) (UniProt P13612); remark: listed apart in the source
[3] = biological target: integrin α4β7 (human (endogenous in RPMI 8866–CXCR3)) (UniProt P13612); remark: listed apart in the source
[4] = biological target: integrin α4β7 (human (endogenous in RPMI 8866–CXCR3)) (UniProt P13612); remark: listed apart in the source
[5] = biological target: integrin α4β7 (human (endogenous in RPMI 8866–CXCR3)) (UniProt P13612); remark: listed apart in the source
[6] = biological target: integrin α4β7 (human (endogenous in RPMI 8866–CXCR3)) (UniProt P13612); remark: listed apart in the source
integrin α4β7 [7] = biological target: T1, integrin α4β7 (human (endogenous in RPMI 8866–CXCR3), UniProt P13612 34-1032; P26010 20-798)
integrin α4β7 [8] = biological target: T1, integrin α4β7; remark: listed apart in the source
integrin α4β7 [9] = biological target: T1, integrin α4β7; remark: listed apart in the source

Chain of integrin α4β7 (human (endogenous in RPMI 8866–CXCR3)) (P13612 34-1032, chain 1 of 2): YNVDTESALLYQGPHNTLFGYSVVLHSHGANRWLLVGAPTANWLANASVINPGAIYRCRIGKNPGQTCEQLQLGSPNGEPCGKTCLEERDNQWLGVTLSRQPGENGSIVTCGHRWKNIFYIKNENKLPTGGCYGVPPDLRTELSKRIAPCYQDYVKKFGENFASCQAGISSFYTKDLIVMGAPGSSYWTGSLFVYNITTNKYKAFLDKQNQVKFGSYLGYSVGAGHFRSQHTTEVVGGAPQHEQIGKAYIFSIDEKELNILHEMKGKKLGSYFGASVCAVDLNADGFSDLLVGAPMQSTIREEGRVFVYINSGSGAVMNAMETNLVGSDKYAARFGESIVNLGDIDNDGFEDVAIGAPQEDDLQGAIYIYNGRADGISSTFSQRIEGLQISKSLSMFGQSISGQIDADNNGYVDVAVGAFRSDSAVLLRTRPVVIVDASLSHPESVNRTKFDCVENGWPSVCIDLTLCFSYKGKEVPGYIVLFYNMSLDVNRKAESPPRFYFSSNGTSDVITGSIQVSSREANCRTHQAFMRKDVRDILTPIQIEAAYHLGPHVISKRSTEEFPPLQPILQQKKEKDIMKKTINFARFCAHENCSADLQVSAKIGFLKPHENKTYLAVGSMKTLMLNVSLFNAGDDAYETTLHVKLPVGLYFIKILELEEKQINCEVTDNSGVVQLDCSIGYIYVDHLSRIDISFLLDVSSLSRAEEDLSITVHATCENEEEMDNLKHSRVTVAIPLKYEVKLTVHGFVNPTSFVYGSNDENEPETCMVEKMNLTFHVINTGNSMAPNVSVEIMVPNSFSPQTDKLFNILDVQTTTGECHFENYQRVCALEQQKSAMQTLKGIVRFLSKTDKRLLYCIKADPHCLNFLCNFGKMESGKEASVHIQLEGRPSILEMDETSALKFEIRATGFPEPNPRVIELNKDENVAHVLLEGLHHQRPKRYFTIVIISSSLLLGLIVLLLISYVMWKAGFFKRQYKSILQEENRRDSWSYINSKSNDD
Chain of integrin α4β7 (human (endogenous in RPMI 8866–CXCR3)) (P26010 20-798, chain 2 of 2, further chain): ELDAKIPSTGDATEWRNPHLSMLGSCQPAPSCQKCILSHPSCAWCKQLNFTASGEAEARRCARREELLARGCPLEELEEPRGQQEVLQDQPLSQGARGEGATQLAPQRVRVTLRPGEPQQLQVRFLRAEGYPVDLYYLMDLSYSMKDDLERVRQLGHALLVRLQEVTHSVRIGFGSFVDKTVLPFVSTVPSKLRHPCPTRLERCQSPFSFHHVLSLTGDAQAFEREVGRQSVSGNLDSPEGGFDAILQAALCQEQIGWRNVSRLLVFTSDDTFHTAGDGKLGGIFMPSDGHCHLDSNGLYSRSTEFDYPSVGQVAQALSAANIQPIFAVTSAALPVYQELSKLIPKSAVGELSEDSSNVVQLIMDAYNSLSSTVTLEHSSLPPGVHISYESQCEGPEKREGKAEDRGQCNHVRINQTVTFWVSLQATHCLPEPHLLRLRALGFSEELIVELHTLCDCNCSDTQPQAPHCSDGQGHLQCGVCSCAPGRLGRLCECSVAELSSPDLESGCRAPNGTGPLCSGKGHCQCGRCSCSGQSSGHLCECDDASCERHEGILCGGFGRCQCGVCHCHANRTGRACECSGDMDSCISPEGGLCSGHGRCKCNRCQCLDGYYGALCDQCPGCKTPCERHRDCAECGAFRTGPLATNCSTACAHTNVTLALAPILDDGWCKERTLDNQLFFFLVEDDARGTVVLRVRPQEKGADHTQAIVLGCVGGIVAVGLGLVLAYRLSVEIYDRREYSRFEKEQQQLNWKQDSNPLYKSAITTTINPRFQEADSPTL
T1 sequence (P13612 34-1032, chain 1 of 2): as the sequence (P13612 34-1032, chain 1 of 2) above
T1 sequence (P26010 20-798, chain 2 of 2): as the sequence (P26010 20-798, chain 2 of 2, further chain) above

Molecule	single-bond unbinding force [1] [pN]	adhesion frequency [2] [%]	koff [3] [s⁻¹]	adhesion frequency [4] [%]	koff [5] [s⁻¹]	adhesion frequency [6] [%]	koff [6] [s⁻¹]	single-bond unbinding force [6] [pN]	koff (integrin α4β7 [7]) [s⁻¹]	koff (integrin α4β7 [8]) [s⁻¹]	koff (integrin α4β7 [9]) [s⁻¹]
MAdCAM-1 (adsorbed on the surface for AFM single-cell force spectroscopy) (from UniProt Q13477 19-382) (ligand)	32	55	0.4	25	1.17	31	1.03	35 to 80			
B1									1.75	0.83	1.58
